Measurements reported in patent CN117603358A.

Columns and labels:
[1] = target: S蛋白, SARS-CoV-2 BA.1 (SARS-CoV-2 BA.1); experiment: cell-based or functional assay
[2] = target: S蛋白, SARS-CoV-2 BA.2.75 (SARS-CoV-2 BA.2.75); experiment: cell-based or functional assay
[3] = target: S蛋白, SARS-CoV-2 BA.4/5 (SARS-CoV-2 BA.4/5); experiment: cell-based or functional assay
[4] = target: S蛋白, SARS-CoV-2 BF.7 (SARS-CoV-2 BF.7); experiment: cell-based or functional assay
[5] = target: S蛋白, SARS-CoV-2 BQ.1 (SARS-CoV-2 BQ.1); experiment: cell-based or functional assay
[6] = target: S蛋白, SARS-CoV-2 BQ.1.1 (SARS-CoV-2 BQ.1.1); experiment: cell-based or functional assay
[7] = target: S蛋白, SARS-CoV-2 Delta (SARS-CoV-2 Delta); experiment: cell-based or functional assay
[8] = target: S蛋白, SARS-CoV-2 XBB (SARS-CoV-2 XBB); experiment: cell-based or functional assay
[9] = target: S蛋白, SARS-CoV-2 XBB.1.5 (SARS-CoV-2 XBB.1.5); experiment: cell-based or functional assay
[10] = target: SARS-CoV-2(BA.5) Spike RBD (SARS-CoV-2 BA.5); experiment: SPR (Biacore 8K), antibody captured on Protein A chip, RBD as analyte
[11] = target: SARS-CoV-2(BF.7) Spike RBD (SARS-CoV-2 BF.7); experiment: as above

Substance: LY-CoV1404 (antibody)
- 假病毒中和活性 IC50 [1]: 1.44 ng/mL
- 假病毒中和活性 IC50 [2]: 25.1 ng/mL
- 假病毒中和活性 IC50 [3]: 1.22 ng/mL
- 假病毒中和活性 IC50 [4]: 2.14 ng/mL
- 假病毒中和活性 IC50 [5]: > 2000 ng/mL
- 假病毒中和活性 IC50 [6]: > 2000 ng/mL
- 假病毒中和活性 IC50 [7]: 3.05 ng/mL
- 假病毒中和活性 IC50 [8]: > 2000 ng/mL
- 假病毒中和活性 IC50 [9]: > 2000 ng/mL
- Kd [10]: 184 pM
- Kd [11]: 162 pM
